Test: soluble on expression in E. coli; label from the status in PepcDB or PDB records

Sequence	soluble on expression in E. coli
MVPVVALVGRPNVGKSTLFNRLTRTRDALVADFPGLTRDRKYGRAEIEGREFICIDTGGIDGTEDGVETRMAEQSLLAIEEADVVLFMVDARAGLMPADEAIAKHLRSREKPTFLVANKTDGLDPDQAVVDFYSLGLGEIYPIAASHGRGVLSLLEHVLLPWMEDLAPQEEVDEDAEYWAQFEAEENGEEEEEDDFDPQSLPIKLAIVGRPNVGKSTLTNRILGEERVVVYDMPGTTRDSIYIPMERDGREYVLIDTAGVRKRGKITDAVEKFSVIKTLQAIEDANVVMLVIDAREGISDQDLSLLGFILNSGRSLVIVVNKWDGLSQEVKEQVKETLDFRLGFIDFARVHFISALHGSGVGNLFESVREAYDSSTRRVGTSMLTRIMTMAVEDHQPPLVRGRRVKLKYAHAGGYNPPIVVIHGNQVKDLPDSYKRYLMNYFRKSLDVMGSPIRIQFKEGENPYANKRNTLTPTQMRKRKRLMKHIKKNK	not soluble
GAAAAMSICPHIQQVFQNEKSKDGVLKTCNAARYILNHSVPKEKFLNTMKCGTCHEINSGATFMCLQCGFCGCWNHSHFLSHSKQIGHIFGINSNNGLLFCFKCEDYIGNIDLINDAILAKYWDDVCTKTMVPSMERRDGLSGLINMGSTCFMSSILQCLIHNPYFIRHSMSQIHSNNCKVRSPDKCFSCALDKIVHELYGALNTKQASSSSTSTNRQTGFIYLLTCAWKINQNLAGYSQQDAHEFWQFIINQIHQSYVLDLPNAKEVSRANNKQCECIVHTVFEGSLESSIVCPGCQNNSKTTIDPFLDLSLDIKDKKKLYECLDSFHKKEQLKDFNYHCGECNSTQDAIKQLGIHKLPSVLVLQLKRFEHLLNGSNRKLDDFIEFPTYLNMKNYCSTKEKDKHSENGKVPDIIYELIGIVSHKGTVNEGHYIAFCKISGGQWFKFNDSMVSSISQEEVLKEQAYLLFYTIRQVN	soluble
CPRLIRFVMEEDYANLPPLRRFLRRAGVIPISASNRSSIRRAFNDVEEALNEGHIVCIFPEGRLTSDGEMNDFMRGIDIILRRSPVPVIPMALKGLWGSYFSRAKGRACRGFPTRFWSKLEIEAGEPVDPSSATAQTMFEKVHALRGDWR	not soluble
MNRDDAPPIPDALSHRQLNRWLETAMQESSTPAKESNDILSAELERWANHTRFLLQRMAHKGDAIGSDRSPQQVMALGSFRTHLMLGLQALKASQPGR	not soluble
MAHHHHHHMPAVADCTVVFPLRHDPASTHPDVSGLVGKAFERVNWRDAFDTFLAEERSALWAAKTAFDNTDTSAYIAARDALFPQAVSGVHGAVAFRNRAGHKLHETMEAVGLWEYLKGGATRAKGTFTFVDVCGGPGAFSQALFAMGKEHKLRLRGFGLTLRNVKGLDWYTDLPSRSFFPCYGIDGTGDVFKLENIESLCSLTCKENVRLVVADGGFDVPTEVVNFQETISCRIVYGQWLSAVKLLRPGGCFVLKLFDCFSPFTRAILFLTTHLYESVQVVKPRHSRVVNSERYLVCIGFIGAPKQWLEHFERCYQEGFVDNDNIPTVLPTSLFSGDKIFGADVERMSATIASNQVSGLHAILEKLQSKPAMEEVKS	not soluble
MGSDKIHHHHHHLIKNILIMAANGQISRLIENQILNDDQFANVHLTLFLRHQSRLAQLAKNPRVTLIEGSLDRLDDVKKAMVDQDLVFIGVVDHSKGSQQTQNVIAGMKAGHVQRVIYTNVLGIYDEVPGTFGKWNKATIGNGLPSALKSDQLLEQSGLDYTTLRLPWLNDRDVKYQLTHKDETYVGVSGSRKSVADVVLKIIADPDYLKNDSVGIADPDTAGSDRLVY	not soluble
MNDSIDDDFPPEPRGRCYTWPMQQYIYQESSATIPHHHLNQHNNPYHPMHPHHQLPHMQQLPQPLLNLNMTTLTSSGSSVASSIGGGAQCSPCASGSSTAATNSSQQQQTVGQMLAASVPCSSSGMTLGMSLNLSQGGGPMPAKKKRCRKKPTDQLAQKKPNPWGEESYSDIIAKALESAPDGRLKLNEIYQWFSDNIPYFGERSSPEEAAGWKNSIRHNLSLHSRFMRIQNEGAGKSSWWVINPDAKPGRNPRRTRERSNTIETTTKAQLEKSRRGAKKRIKERALMGSLHSTLNGNSIAGSIQTISHDLYDDDSMQGAFDNVPSSFRPRTQSNLSIPGSSSRVSPAIGSDIYDDLEFPSWVGESVPAIPSDIVDRTDQMRIDATTHIGGVQIKQESKPIKTEPIAPPPSYHELNSVRGSCAQNPLLRNPIVPSTNFKPMPLPGAYGNYQNGGITPINWLSTSNSSPLPGIQSCGIVAAQHTVASSSALPIDLENLTLPDQPLMDTMDVDALIRHELSQAGGQHIHFDL	not soluble
MIILNIPLFKGLTLEQIEDMKNKHCMTEKKYKKNSFIFRAGDIVHEIGIVLEGSINIEMIDMWDNKSILSNIDVGQIFAESYALCNEPMMVDAVATKDSTILMLNMRQIFAPINNSASWYNTFTYNLLVLSTRKNLTLSTRIFCTSSKSVRGRVLTYLSNQSIKHNNTEFQIPFNRQQMADYLNLDRSALSKELGKMQDEGIITFNKNRFKLNINYDSEF	not soluble
MIELVIVSRLLEYPDAALWQHQQEMFEAIAASKNLPKEDAHALGIFLRDLTTMDPLDAQAQYSELFDRGRATSLLLFEHVHGESRDRGQAMVDLLAQYEQHGLQLNSRELPDHLPLYLEYLAQLPQSEAVEGLKDIAPILALLSARLQQRESRYAVLFDLLLKLANTAIDSDKVAEKIADEARDDTPQALDAVWEEEQVKFFADKGCGDSAITAHQRRFAGAVAPQYLNITTGGQH	not soluble
MSPDQKHRYKLYYVNMRGRAEPIRLVFHFLGVDFEDYRMDKGDFTGAMKDKAPMKQLPFIEIDGGKTTLCQTVSICRYLAKSIQPDRWFGGATKTDSAKVDMMADGFADLFQLAAMAKYAPDPIKDSMMGTYKESIGPKLENMQDLLKKSKGEYFVGKSIHWCDVYILGVLQALDESDDGVFDNLPELREYYLRMRNLPELKEYIDANWPETKYKE	not soluble
MRELGLEIPVEEVYNANSISLKDAVVHFGGGCTGEVISSEGLVLTNHHCGYGAIQQHSNVEHDYLTEGFWAMNRDAELPTPGLTVTFIDRILDVTSYVNDQLKKDEDPNGTNYLSPSYLSKVAERFAKDENIEVTPATKLELKAFYGGNKYYMFVKTVYSDIRMVGAPPSSIGKFGADTDNWMWPRHTGDFSLFRIYADKNGKPAAYSRDNVPLQVKKHLKISIAGVQEGDFTFVMGFPGRNWRYMISDEVEERMQTTNFMRQHVRGARQKVLMEQMLKDPAVRIHYASKYASSANYWKNAIGMNEGLVRLKVLDTKRKQQEELLARGREKGDDSYQKAFDEIRSIVAHRRDALYHQQALNEALVTALDFMRLPSTTEMVTALKSKNKEQIKTATENLKQAGEKYFASVPFPEVERMVAKTMLQTYASYIPEEQRINIFEIINSRFKGNIDSFVDACFEYSIFGNPKNFEKFIKKPSLYKIGHDWMVLFKYSITDGILKTAIAMKEANQNYDAAHKVWVKGMMDMRQEKGMPIYPDANSTLRLTYGQVLSYEPADGVVYDAHTTLKGVMEKEDPGNWEFVVPQKLKELYKARDYGRYGKDGEMPVCFIVNTDNTGGNSGSPVFNSKGQLVGTAFDRNYEGLTGDIAFRPSSQRAACVDIRYTLFIIDKYAGASHIIDELSIE	not soluble
MIASKMPREVRLPSFQIEIIGAMSTYKIYCQSLLPLSHSALLIMVAPSFPLLNLPEKSLKEVFCNMSVVQQTCISMISEKTKNLVRKFHIFKQVQIWLDFSDSLRCYMSLKGISLSIWHTPMWH	not soluble
MGSDKIHHHHHHMLSAMYLIDAFFSRQNNQFHLEQQSHCVNQIIEQWRYNGQIIGREIPQFVAEQKNQQGLAVRVTCPEQTSLLAEFNNQPVNDALQTAEKCGVSFESFHIVAEDLNSEITATETPAWQLLYTTYLQSCSPLQSGESLQPIPLYKQLKNIPHLAMDLVKWQENWQACDQLQMNGSVLEQQALVQISDTQSTLFKHGYHLTQEIERHSGIPTYYYLYRIGGKSCEAELQSRCPLCKRKWTLSHPLFDFLYFKCDHCRLVSNLSWHWQ	not soluble
MTTHSAHLLRRLNPYCAQALAGAATLCQTRAHAEITVEHWLLKLLEQGEGDITVIARRYEWDMDSLWQGLLSHLDTLPRTVQGKPQLSAALQQLIKNAWLDASLQENADAVRSVHLMAALIATPSLLVAEAAWPLLSLSTTQLQRLLPLLDNQSDERPEVQQAAALADSPVNLTDEAATVTSASGQPQLNDALQAALDKFTLDVTAKARANQIDPIFGRDSEIRQMIDILSRRRKNNPILVGEPGVGKTALVEGLALRIADGNVPDSLKTVSVRTLDLGLLQAGAGVKGEFEQRLKNVIEAVQQSPSPVLLFIDEAHTIIGAGNQAGGADAANLLKPALARGELRTIAATTWSEYKQYFERDAALERRFQMVKVDEPDDDTACLMLRGLKERYATHHGVHILDAAITAAVTLSRRFLTGRQLPDKAVDLLDTAGARVRMSIDTLPTALMEINAELAALAMEQQAIEQDLLLLPNVSSTRLPEIEQRRAALAVGQHTLEQQYKEEKRLTTLIIEARQDIANAAHLVALQEELVQIQGNAPLLSLDVDVRTVAAVIADWTGVPLGSLLKDEQTNLLSLENRLGERVIGQDAALGALAQRLRAAKTGLTSENGPLGVFLLVGPSGIGKTETALALADSLFGGEKSLITINLSEYQEAHTVSQLKGSPPGYVGYGQGGVLTEAVRKRPYSVVLLDEVEKAHRDVLNLFYQVFDRGFMRDGEGREIDFRNTVIVMTANLGSDHLMQLLDEQPDAPDSTLHELLRPILRDHFQPALLARFQTLIYRPLQVDALKRIVAIKLNQVAQRLHCHYGLSCQIEDSLTDTLVAACLLPDTGARNIDSLLNQQILPVLSQQLLSRMSEQQRTTSLTLGWHEEDGITLTFEGE	not soluble
VRDHLPPGLPPDPFADDPCDPSAALEAVEPGQPLDQQERMAVEADLADLAVYEALLAHKGIRGLVVCCDECQQDHYHDWDMLRSNLLQLLIDGTVRPHEPAYDPEPDSYVTWDYCRGYADASLNEAAPDADRFRRR	soluble
MGSDKIHHHHHHMYYRPADGHGLPHNPFNAIVSPRPIGWISTRGEGGGDNLAPYSFFNAVAYEPPQVMFSSTSAKEDRGDTKDSVANIRETGVFCVNIVEYAARDAMNETSGPWPATEDEFQRAGIERADCTEIPCSRVASAPANLECRVTQIIKLEGAHNFAVFGEVVGVHIRDDVLVDGHFDVTRFNPLTRMGYRDYSVIRDVFSLKRPGE	not soluble
MSLNEEQLSKRLEKVASYITKNERIADIGSDHAYLPCFAVKNQTASFAIAGEVVDGPFQSAQKQVRSSGLTEQIDVRKGNGLAVIEKKDAIDTIVIAGMGGTLIRTILEEGAAKLAGVTKLILQPNIAAWQLREWSEQNNWLITSEAILREDNKVYEIMVLAPSEKPVTWTKQEIFFGPCLLKEQSAIFKSKWRHEANTWQNIIQTISNNQPVSTENQAKIRELEHKIALVEDVLKEGHHHHHH	soluble
MTQKNESQRQDRVAAWSRHAESELSAYQSAAKLDLQAQKPRDHKLCASLEEAIRRSGLRDGMTVSFHHAFRGGDLTINLVMETIAKMGFKNLTLASSSLSDCHAPLVEHIRNGVVSRIYTSGLRGPLAEEISRGLLAEPVQIHSHGGRVHLVQSGELNIDVAFLGVPSCDEFGNANGYTGKACCGSLGYAMVDADSAKQVVMLTEQLLPYPHNPASIAQDQVDLIVQIEEVGDANKIGAGATRMTTNPRELLIARSAAEVIAHSGYFNEGFSLQTGTGGASLAVTRFLEDKMRSRNIVANFALGGITATMVDLHEKGLIRKLLDVQSFDRNAAQSLARNPNHIEISANQYANWGSKGASVDRLDVVVLSALEVDTHFNVNVLTGSDGVLRGASGGHCDTAVAAALSIIVAPLVRGRIPTLVDNVTTCVTPGSSVDILVTDHGIAVNPARPELAERLKAAGMKVVSIEWLRERAQLLTGQPRPIEFTDRVIAVVRYRDGSVIDVVHQVKE	not soluble

Source: the DeepSol protein solubility set
